The target in assay [1] is T1, RalGPS1 (residues 24-289) (human, UniProt Q5JS13 24-289).
T1 construct: RalGPS1, human, residues 24-289; also called respective GEF of Ral-B (pairing inferred); source: E. coli BL21 (DE3), purified (GSTTrap, Superdex 75)
The assay can be described thus: pull-down; (His)6-tagged GTPase held on nickel beads, 2 µg GST-tagged partner added; 20 mM HEPES pH 7.4, 150 mM NaCl, 5 mM MgCl2, 40 mM imidazole, 4 °C, 1 h; GST-tagged protein detected by anti-GST western blot; samples without effect of DC-Rhoin. Conditions: both partners purified. For orientation: Immunoblotting shows a protein as a band on a membrane.

Another assay deals with Rac1 (human, UniProt P63000 1-192). Described as above. Conditions: both partners purified.

The values below come from paper PMC7375240, “Covalent Inhibitors Allosterically Block the Activation of Rho Family Proteins and Suppress Cancer Cell Invasion” (Advanced Science, 2020).

T1 sequence (Q5JS13 24-289): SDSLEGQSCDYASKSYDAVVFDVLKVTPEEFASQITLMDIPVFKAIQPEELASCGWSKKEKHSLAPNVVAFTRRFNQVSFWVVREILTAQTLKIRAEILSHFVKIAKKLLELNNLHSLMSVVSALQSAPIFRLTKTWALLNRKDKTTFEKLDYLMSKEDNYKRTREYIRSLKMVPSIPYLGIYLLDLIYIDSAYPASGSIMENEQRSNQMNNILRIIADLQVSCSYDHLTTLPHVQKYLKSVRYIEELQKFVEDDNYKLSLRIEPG

B1: Ral-B (natural protein, human, UniProt P11234 1-206, looked up)
chain: MAANKSKGQSSLALHKVIMVGSGGVGKSALTLQFMYDEFVEDYEPTKADSYRKKVVLDGEEVQIDILDTAGQEDYAAIRDNYFRSGEGFLLVFSITEHESFTATAEFREQILRVKAEEDKIPLLVVGNKSDLEERRQVPVEEARSKAEEWGVQYVETSAKTRANVDKVFFDLMREIRTKKMSENKDKNGKKSSKNKKSFKERCCLL
notes: RalB, human, full length, in pET28a with a TEV site; source: E. coli BL21 (DE3), purified (HisTrap FF, Superdex 75)
For the molecule B1, the binding result in assay [1] is “binds”.

B2: Tiam1 (residues 1033-1406) (domain or fragment)
chain: RQLSDADKLRKVICELLETERTYVKDLNCLMERYLKPLQKETFLTQDELDVLFGNLTEMVEFQVEFLKTLEDGVRLVPDLEKLEKVDQFKKVLFSLGGSFLYYADRFKLYSAFCASHTKVPKVLVKAKTDTAFKAFLDAQNPRQQHSSTLESYLIKPIQRVLKYPLLLRELFALTDAESEEHYHLDVAIKTMNKVASHINEMQKIHEEFGAVFDQLIAEQTGEKKEVADLSMGDLLLHTSVIWLNPPASLGKWKKEPELAAFVFKTAVVLVYKDGSKQKKKLVGSHRLSIYEEWDPFRFRHMIPTEALQVRALPSADAEANAVCEIVHVKSESEGRPERVFHLCCSSPESRKDFLKSVHSILRDKHRRQLLKTE
notes: Tiam1, murine, residues 1033-1406; The text says only 'their respective GEFs'; that this construct was the GEF used with Rac1 is inferred from the list of constructs; also called respective GEF of Rac1 (pairing inferred); source: E. coli BL21 (DE3), purified (GSTTrap, Superdex 75)
For B2, the binding result in the assay with Rac1 is reported as “binds”.
